Measurements published in article PMC4222845.

Assays:
[1] = biological target: CopNΔ84 (C. pneumoniae AR39); test: SEC; Superdex 200 10/300 GL, 10 mM Tris-HCl pH 7.5, 150 mM NaCl, 0.5 mL/min, 4°C; equivalent molar concentrations, incubated 15 minutes; molecular weight from BioRad gel-filtration standards
[2] = biological target: Scc3 (C. pneumoniae AR39); test: ITC
[3] = biological target: Scc3-CopNΔ84 complex (C. pneumoniae AR39); test: ITC

| Substance | stoichiometry N [1] | Kd [2] | Kd [3] |
| --- | --- | --- | --- |
| Scc3 (natural protein) | 1 | – | – |
| synthetic peptide (CopB residues 163–173) | – | 79 µM | 49 µM |
